Measurements from patent publication US20220363770A1 (Amgen, published 2022).
Where a chain is given by its changes, count along the chain named.

B1: iPS:454757 (bispecific antibody, human IgG1, kappa, lambda, N297G)
light 1: QSVLTQPPSVSAAPGQKVTISCSGSYSNIGRYSVSWYQQLPGTAPKLLIYDNNKRPSGIPDRFSGSKSGTSATLGITGLQTGDEADYYCGTWDSRLSAVVFGGGTKLTVLGQPKAAPSVTLFPPSSEELQANKATLVCLISDFYPGAVTVAWKADSSPVKAGVETTTPSKQSNNKYAAKSYLSLTPEQWKSHRSYSCQVTHEGSTVEKTVAPTECS
heavy 1: QVQLVESGGGVVQPGRSLRLSCAASGFTFSSFGMHWVRQAPGKGLEWVAVISFDGSIKYSVDSVKGRFTISRDNSKNTLFLQMNSLRAEDTAVYYCARDRLNYYESSGYYHYKYYGMAVWGQGTTVTVSSASTKGPSVFPLAPSSKSTSGGTAALGCLVKDYFPEPVTVSWNSGALTSGVHTFPAVLQSSGLYSLESVVTVPSSSLGTQTYICNVNHKPSNTKVDKKVEPKSCDKTHTCPPCPAPELLGGPSVFLFPPKPKDTLMISRTPEVTCVVVDVSHEDPEVKFNWYVDGVEVHNAKTKPCEEQYGSTYRCVSVLTVLHQDWLNGKEYKCKVSNKALPAPIEKTISKAKGQPREPQVYTLPPSRKKMTKNQVSLTCLVKGFYPSDIAVEWESNGQPENNYKTTPPVLKSDGSFFLYSKLTVDKSRWQQGNVFSCSVMHEALHNHYTQKSLSLSPGK
light 2: EIVLTQSPATLSLSPGERATLSCRASKSVGRSLHWYQQKPGQAPRLLIKYASQSLSGIPARFSGSGSGTDFTLTISSLEPEDFAVYYCHQSSRLPFTFGPGTKVDIKRTVAAPSVFIFPPSDEQLKSGTASVVCLLNNFYPREAKVQWKVDNALQSGNSQESVTEQDSKDSTYSLESTLTLSKADYEKHKVYACEVTHQGLSSPVTKSFNRGEC
heavy 2: not shown
B2: iPS:454761 (bispecific antibody, human IgG1, kappa, lambda, N297G)
light 1: B1 light 1
heavy 1: B1 heavy 1
light 2: B1 light 2
heavy 2: not shown
B3: iPS:454759 (bispecific antibody, human IgG1, kappa, lambda, N297G)
light 1: B1 light 1
heavy 1: B1 heavy 1
light 2: B1 light 2
heavy 2: not shown
B4: iPS:454793 (bispecific antibody, human IgG1, kappa, lambda, N297G)
light 1: B1 light 1 with Y26R, R31I, Y32K, S33A
heavy 1: B1 heavy 1
light 2: B1 light 2 with R31Q
heavy 2: not shown
B5: iPS:454809 (bispecific antibody, human IgG1, kappa, lambda, N297G)
light 1: B1 light 1 with Y26R, R31I, Y32K, S33A
heavy 1: B1 heavy 1
light 2: B1 light 2 with S28A, R31F, R93F
heavy 2: not shown
B6: iPS:454807 (bispecific antibody, human IgG1, kappa, lambda, N297G)
light 1: B1 light 1 with Y26R, R31I, Y32K, S33A
heavy 1: B1 heavy 1
light 2: B1 light 2 with R31Q
heavy 2: not shown
B7: iPS:454769 (bispecific antibody, human IgG1, kappa, lambda, N297G)
light 1: B1 light 1
heavy 1: B1 heavy 1
light 2: B1 light 2
heavy 2: not shown
B8: iPS:454785 (bispecific antibody, human IgG1, kappa, lambda, N297G)
light 1: B1 light 1
heavy 1: B1 heavy 1
light 2: B1 light 2 with R31W
heavy 2: not shown
B9: iPS:454765 (bispecific antibody, human IgG1, kappa, lambda, N297G)
light 1: B1 light 1
heavy 1: B1 heavy 1
light 2: B1 light 2 with K27Q
heavy 2: not shown
B10: iPS:454773 (bispecific antibody, human IgG1, kappa, lambda, N297G)
light 1: B1 light 1
heavy 1: B1 heavy 1
light 2: B1 light 2 with S28A, R31W
heavy 2: not shown
B11: iPS:454791 (bispecific antibody, human IgG1, kappa, lambda, N297G)
light 1: B1 light 1
heavy 1: B1 heavy 1
light 2: B1 light 2 with R31Y
heavy 2: not shown
B12: iPS:454787 (bispecific antibody, human IgG1, kappa, lambda, N297G)
light 1: B1 light 1
heavy 1: B1 heavy 1
light 2: B1 light 2 with R31W
heavy 2: not shown
B13: iPS:454771 (bispecific antibody, human IgG1, kappa, lambda, N297G)
light 1: B1 light 1
heavy 1: B1 heavy 1
light 2: B1 light 2
heavy 2: not shown
B14: iPS:454775 (bispecific antibody, human IgG1, kappa, lambda, N297G)
light 1: B1 light 1
heavy 1: B1 heavy 1
light 2: B1 light 2 with R31W
heavy 2: not shown
B15: iPS:454803 (bispecific antibody, human IgG1, kappa, lambda, N297G)
light 1: B1 light 1 with Y26R, R31I, Y32K, S33A
heavy 1: B1 heavy 1
light 2: B1 light 2 with R31W
heavy 2: not shown
B16: iPS:454789 (bispecific antibody, human IgG1, kappa, lambda, N297G)
light 1: B1 light 1
heavy 1: B1 heavy 1
light 2: B1 light 2 with R31W
heavy 2: not shown
B17: iPS:454805 (bispecific antibody, human IgG1, kappa, lambda, N297G)
light 1: B1 light 1 with Y26R, R31I, Y32K, S33A
heavy 1: B1 heavy 1
light 2: B1 light 2 with R31Q
heavy 2: not shown
B18: iPS:454783 (bispecific antibody, human IgG1, kappa, lambda, N297G)
light 1: B1 light 1
heavy 1: B1 heavy 1
light 2: B1 light 2 with R31W
heavy 2: not shown
B19: iPS:454801 (bispecific antibody, human IgG1, kappa, lambda, N297G)
light 1: B1 light 1 with Y26R, R31I, Y32K, S33A
heavy 1: B1 heavy 1
light 2: B1 light 2 with R31Q
heavy 2: not shown
B20: iPS:454797 (bispecific antibody, human IgG1, kappa, lambda, N297G)
light 1: B1 light 1 with Y26R, R31I, Y32K, S33A
heavy 1: B1 heavy 1
light 2: B1 light 2 with K27R, R31L, S32A, R93F
heavy 2: not shown
B21: iPS:454763 (bispecific antibody, human IgG1, kappa, lambda, N297G)
light 1: B1 light 1
heavy 1: B1 heavy 1
light 2: B1 light 2 with K27Q
heavy 2: not shown
B22: iPS:454799 (bispecific antibody, human IgG1, kappa, lambda, N297G)
light 1: B1 light 1 with Y26R, R31I, Y32K, S33A
heavy 1: B1 heavy 1
light 2: B1 light 2 with R31Q
heavy 2: not shown
B23: iPS:454795 (bispecific antibody, human IgG1, kappa, lambda, N297G)
light 1: B1 light 1 with Y26R, R31I, Y32K, S33A
heavy 1: B1 heavy 1
light 2: B1 light 2 with S28A, G30W, R31H, S32N, R93M
heavy 2: not shown
B24: iPS:454767 (bispecific antibody, human IgG1, kappa, lambda, N297G)
light 1: B1 light 1
heavy 1: B1 heavy 1
light 2: B1 light 2 with K27Q
heavy 2: not shown

How the values were obtained:
human CGRP receptor = human CGRP receptor (human, UniProt Q16602 23-461; O60894 27-148); assay: cell-based or functional assay
human PAC1 receptor = molecular target: T1, human PAC1 receptor (human, UniProt P41586 24-468); assay: cell-based or functional assay
T1 sequence: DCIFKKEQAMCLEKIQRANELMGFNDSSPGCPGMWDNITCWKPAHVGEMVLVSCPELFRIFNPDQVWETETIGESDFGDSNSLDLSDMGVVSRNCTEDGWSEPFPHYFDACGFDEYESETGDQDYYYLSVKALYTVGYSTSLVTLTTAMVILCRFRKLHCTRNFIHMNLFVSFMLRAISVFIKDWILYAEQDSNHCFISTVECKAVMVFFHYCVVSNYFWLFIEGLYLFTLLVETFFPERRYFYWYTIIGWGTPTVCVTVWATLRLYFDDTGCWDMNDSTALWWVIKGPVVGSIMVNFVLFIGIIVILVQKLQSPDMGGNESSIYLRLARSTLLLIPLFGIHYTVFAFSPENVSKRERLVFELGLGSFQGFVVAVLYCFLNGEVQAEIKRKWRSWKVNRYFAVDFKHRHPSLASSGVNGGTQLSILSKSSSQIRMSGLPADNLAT

Sequence of human CGRP receptor (Q16602 23-461 limits assumed, chain 1 of 2): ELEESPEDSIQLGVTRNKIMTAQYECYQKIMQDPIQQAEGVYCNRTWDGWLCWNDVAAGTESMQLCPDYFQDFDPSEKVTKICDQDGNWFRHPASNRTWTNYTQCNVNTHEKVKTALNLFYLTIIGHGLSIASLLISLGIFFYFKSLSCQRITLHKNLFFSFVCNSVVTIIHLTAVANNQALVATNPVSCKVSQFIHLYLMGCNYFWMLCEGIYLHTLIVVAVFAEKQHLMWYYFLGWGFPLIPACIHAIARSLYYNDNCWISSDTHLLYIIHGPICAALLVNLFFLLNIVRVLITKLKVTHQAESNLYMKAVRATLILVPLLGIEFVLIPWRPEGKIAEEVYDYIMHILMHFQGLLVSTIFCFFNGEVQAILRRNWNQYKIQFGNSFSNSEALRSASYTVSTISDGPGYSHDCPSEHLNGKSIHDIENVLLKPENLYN
Sequence of human CGRP receptor (O60894 27-148 limits assumed, chain 2 of 2): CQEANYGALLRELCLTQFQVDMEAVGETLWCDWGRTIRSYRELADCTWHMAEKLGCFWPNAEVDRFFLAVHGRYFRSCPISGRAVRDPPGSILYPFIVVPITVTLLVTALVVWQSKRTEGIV

Row | Binder | Fold-improvement over 4E4 Ab (human CGRP receptor) | IC50 (human CGRP receptor) | Fold-improvement over 29G4v22 Ab (human PAC1 receptor) | IC50 (human PAC1 receptor)
1 | B1 | 1.4 fold | 0.43 nM | 9.2 fold | 0.68 nM
2 | B2 | 1.4 fold | 0.42 nM | 6.4 fold | 0.97 nM
3 | B3 | 1.5 fold | 0.39 nM | 8.5 fold | 0.74 nM
4 | B4 | 1.3 fold | 0.39 nM | 6 fold | 1.09 nM
5 | B5 | 0.8 fold | 0.64 nM | 4 fold | 2.01 nM
6 | B6 | 0.9 fold | 0.56 nM | 5.4 fold | 1.48 nM
7 | B7 | 1.7 fold | 0.32 nM | 7.2 fold | 0.78 nM
8 | B8 | 1.1 fold | 0.47 nM | 4.6 fold | 1.43 nM
9 | B9 | 1.6 fold | 0.34 nM | 7.8 fold | 0.71 nM
10 | B10 | 0.9 fold | 0.57 nM | 7.7 fold | 0.83 nM
11 | B11 | 1.2 fold | 0.44 nM | 7.1 fold | 0.79 nM
12 | B12 | 1.8 fold | 0.27 nM | 9.5 fold | 0.69 nM
13 | B13 | 1.4 fold | 0.37 nM | 7.6 fold | 0.84 nM
14 | B14 | 1.4 fold | 0.38 nM | 6.7 fold | 0.83 nM
15 | B15 | 1.2 fold | 0.44 nM | 8.7 fold | 0.92 nM
16 | B16 | 1.7 fold | 0.29 nM | 5.5 fold | 1.19 nM
17 | B17 | 1 fold | 0.52 nM | 6.9 fold | 1.16 nM
18 | B18 | 1.1 fold | 0.48 nM | 9.1 fold | 0.62 nM
19 | B19 | 1.2 fold | 0.44 nM | 4.4 fold | 1.82 nM
20 | B20 | 2.6 fold | 0.2 nM | 5.4 fold | 1.21 nM
21 | B21 | 1.5 fold | 0.32 nM | 8.5 fold | 0.75 nM
22 | B22 | 1.6 fold | 0.32 nM | 4.1 fold | 1.59 nM
23 | B23 | 1.4 fold | 0.37 nM | 2 fold | 3.26 nM
24 | B24 | 1.2 fold | 0.41 nM | 9 fold | 0.71 nM
